From paper PMC2131756, “Grb7 SH2 domain structure and interactions with a cyclic peptide inhibitor of cancer cell migration and proliferation” (BMC Structural Biology, 2007)
“Also recorded” adds a separate entry of the source.

Columns and labels:
full-length Grb7 = assay: Analytical ultracentrifugation: dimerisation of full-length Grb7; assay type: binding, human
Procedure: (§1) Figure 4 Sedimentation equilibrium analysis of the Grb7 SH2 and Grb7. (a) Absorbance at 280 nm verses radius data at sedimentation equilibrium for Grb7 SH2 at an initial loading concentration of 36 μM. The data collected at 14,000 rpm (circles), 16,600 rpm (squares), 24,300 rpm (diamonds) and 28,800 rpm (triangles) were fitted simultaneously using the nonlinear regression program. (b) Absorbance at 280 nm verses radius data at sedimentation equilibrium for Grb7 at an initial loading concentrations of 12 μM. The data collected at 10,000 rpm (circles) and 11,800 rpm (squares) were fitted simultaneously using the nonlinear regression program NONLIN [77]. The solid line represents the calculated fit to a monomer-dimer model. […]
(§2) Grb7 SH2 domain and full-length Grb7 were analysed at loading concentrations of A280 values of 0.1, 0.3 and 0.6. […] Absorption profiles were recorded at 280 and 360 nm with automatic dialysate absorption compensation. The data were recorded in 0.001-cm steps and ten scans were averaged to produce each profile. The system was deemed to be in equilibrium when profiles recorded 4 h apart were identical. The data were analysed by fitting models of association to the absorbance versus radial position distribution using the program NONLIN [48, 49]. […] The density of the buffer solution was calculated to be 1.00379 g/ml using the program […] v1.08 [74].

[1] = molecular target: pY1139 phosphopeptide (ErbB2) (Homo sapiens) (UniProt P04626); settings: cited from earlier work
breast cancer cells = settings: co-treatment with cell permeable G7-18NATE peptide, ref [19]; cited from earlier work
Grb7 SH2 domain = molecular target: T1, Grb7 SH2 domain (Homo sapiens, UniProt Q14451); assay: Analytical ultracentrifugation: dimerisation of Grb7 SH2 domain; assay type: binding
T1 construct: encoding residues 415-532 of human Grb7; GST (N, cleaved yes); made in house; host or cells: Escherichia coli BL21(DE3).pLysS
Procedure: as §1, §2

[2] = molecular target: the molecule itself; assay: AUC; sedimentation equilibrium, 20°C, Grb7 SH2 at an initial loading concentration of 36 μM, 14,000-28,800 rpm, 50 mM MES pH 6.6, 100 mM NaCl, 1 mM DTT; global fit to a monomer-dimer model (NONLIN); dimer to monomers

For “full-length Grb7: Full-length Grb7 (residues 1 – 532)”, the “dimer formation (in words)” value (full-length Grb7) was “in the μM range; also recorded: forms dimers in vitro with a similar affinity to that exhibited by the SH2 domain alone; also recorded: same order of magnitude as that obtained for the SH2 domain alone”.

For Grb7 SH2 (from UniProt Q14451), the Kd [1] is given as 2.3 µM.

In the case of `COc1cccc2c1C(=O)c1c(O)c3c(c(O)c1C2=O)C[C@@](O)(C(=O)CO)C[C@@H]3O[C@H]1C[C@H](N)[C@H](O)[C@H](C)O1` [Doxorubicin], the “change of drug EC50 on co-treatment (in words)” value (breast cancer cells) is listed as “significant reduction of the drug EC50 value”.

B1: Grb7 SH2 domain (residues 415-532 of human Grb7) (domain or fragment)
chain: GSPASGTSLSAAIHRTQLWFHGRISREESQRLIGQQGLVDGLFLVRESQRNPQGFVLSLCHLQKVKHYLILPSEEEGRLYFSMDDGQTRFTDLLQLVEFHQLNRGILPCLLRHCCTRVAL
notes: first two of the 7 N-terminal residues of the construct, printed as GSPASGT; 15N-labelled (minimal medium with 15NH4Cl) for the NMR titration, unlabelled otherwise; Expected mass 13,672 g/mol; Residues 420-532 are seen in the crystal structure; also called 15N-Grb7 SH2
In the case of B1, the “dimer association compared with previous experiments at 4 °C (in words)” value (Grb7 SH2 domain; 20 °C versus 4 °C, ref [38]) is reported as “slightly weaker association”, the “dimer formation (in words)” value (Grb7 SH2 domain; analytical ultracentrifugation) is reported as “in the μM range” and the Kd [2] is reported as 21.8 µM. The “stoichiometry N” value [2] was 2.
